# According to US20130315910A1 (Xencor, published 2013):
# T1: mFcγRIIb (Mus musculus, UniProt P08101)
# T1 construct: extracellular region, C-terminal His- and GST-tag; also called mouse FcγRII
# T1 sequence (receptor extracellular region, looked up): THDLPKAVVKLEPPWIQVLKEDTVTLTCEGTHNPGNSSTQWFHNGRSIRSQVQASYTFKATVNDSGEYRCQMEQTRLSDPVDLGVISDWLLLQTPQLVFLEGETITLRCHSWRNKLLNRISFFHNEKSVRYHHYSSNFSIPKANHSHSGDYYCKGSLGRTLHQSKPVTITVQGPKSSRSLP
# T2: mFcγRIV
# T2 construct: also called mouse FcγRIV; not shown: C-terminal His and GST tags (named only on our card)
# T2 chain: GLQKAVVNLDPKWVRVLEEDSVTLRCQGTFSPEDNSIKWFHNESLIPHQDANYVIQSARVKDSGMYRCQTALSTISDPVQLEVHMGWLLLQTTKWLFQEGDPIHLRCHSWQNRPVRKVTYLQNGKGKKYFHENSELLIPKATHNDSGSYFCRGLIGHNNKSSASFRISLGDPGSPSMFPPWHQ
# T3: human FcγRIIa (131R), His- and GST-tagged (human, UniProt P12318 34-217)
# T3 construct: Expressed in HEK293T cells, purified by nickel chromatography; also called R131 FcγRIIa; not shown: 6xHis and GST tags of the pTT5 vector
# T3 sequence (looked up): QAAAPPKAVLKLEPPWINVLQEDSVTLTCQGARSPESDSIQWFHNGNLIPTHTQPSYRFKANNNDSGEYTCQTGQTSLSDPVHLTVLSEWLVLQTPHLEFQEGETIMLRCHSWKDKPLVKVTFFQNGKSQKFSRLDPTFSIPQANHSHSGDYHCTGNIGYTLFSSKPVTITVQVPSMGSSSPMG
# T4: human FcγRIIb receptor protein (R&D Systems) (human, UniProt P31994 46-217)
# T4 construct: Bought protein injected over captured antibody in Biacore; also called CD32b
# T4 sequence (looked up): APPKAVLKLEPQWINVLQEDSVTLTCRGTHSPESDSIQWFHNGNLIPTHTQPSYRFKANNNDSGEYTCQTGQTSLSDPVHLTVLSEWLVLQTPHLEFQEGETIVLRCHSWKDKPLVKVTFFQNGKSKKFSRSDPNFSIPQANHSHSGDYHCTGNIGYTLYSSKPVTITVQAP
# T5: human FcγRIIa (131H), His- and GST-tagged (human, UniProt P12318 34-217)
# T5 construct: also called H131 FcγRIIa; HIIa; not shown: 6xHis and GST tags of the pTT5 vector
# T5 sequence (looked up): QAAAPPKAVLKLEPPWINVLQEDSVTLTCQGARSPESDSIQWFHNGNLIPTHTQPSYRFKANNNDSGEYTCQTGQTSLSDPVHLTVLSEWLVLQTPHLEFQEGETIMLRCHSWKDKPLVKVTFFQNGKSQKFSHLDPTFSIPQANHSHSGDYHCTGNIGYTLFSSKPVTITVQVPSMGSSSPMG
# T6: cynoFcγRIIb (Macaca fascicularis, UniProt A0A140HDP4)
# T6 construct: extracellular region, C-terminal His- and GST-tag; also called cynomolgus monkey FcγRIIb
# T6 sequence (receptor extracellular region): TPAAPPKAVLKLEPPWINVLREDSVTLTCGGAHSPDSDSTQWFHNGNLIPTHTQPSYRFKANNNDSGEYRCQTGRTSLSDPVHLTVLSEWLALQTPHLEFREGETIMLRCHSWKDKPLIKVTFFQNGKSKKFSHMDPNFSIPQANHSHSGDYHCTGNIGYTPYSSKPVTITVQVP
# Key:
# mFcγRIIb [1] = target: T1, mFcγRIIb; experiment: SPR
# mFcγRIV = target: T2, mFcγRIV; experiment: SPR
# cynoFcγRIIIa = target: T7, cynoFcγRIIIa (Macaca fascicularis, UniProt Q8SPW2); experiment: SPR
# T7 construct: extracellular region, C-terminal His- and GST-tag; also called cynomolgus monkey FcγRIIIa
# T7 sequence (Q8SPW2 17-208): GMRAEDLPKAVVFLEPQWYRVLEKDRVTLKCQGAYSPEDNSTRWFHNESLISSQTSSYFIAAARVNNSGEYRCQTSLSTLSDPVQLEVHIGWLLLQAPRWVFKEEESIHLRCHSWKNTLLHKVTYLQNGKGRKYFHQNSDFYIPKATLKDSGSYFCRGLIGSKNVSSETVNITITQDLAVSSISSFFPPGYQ
# [2] = target: T8, human FcγRIIIa (158V), His- and GST-tagged (human, UniProt P08637 17-208); experiment: SPR
# T8 construct: also called V158 FcγRIIIa; VIIIa; not shown: 6xHis and GST tags of the pTT5 vector
# T8 sequence (P08637 17-208 F176V): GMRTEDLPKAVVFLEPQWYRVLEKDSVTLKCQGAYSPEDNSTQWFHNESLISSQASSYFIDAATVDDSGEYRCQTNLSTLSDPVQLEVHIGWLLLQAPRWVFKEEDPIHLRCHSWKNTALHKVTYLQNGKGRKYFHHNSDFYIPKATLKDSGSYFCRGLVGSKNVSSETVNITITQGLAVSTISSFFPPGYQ
# [3] = target: T9, human FcγRI receptor protein (R&D Systems) (human, UniProt P12314 16-288); experiment: SPR
# T9 construct: also called soluble FcγRI; solFcγRI
# T9 sequence (P12314 16-288 limits assumed): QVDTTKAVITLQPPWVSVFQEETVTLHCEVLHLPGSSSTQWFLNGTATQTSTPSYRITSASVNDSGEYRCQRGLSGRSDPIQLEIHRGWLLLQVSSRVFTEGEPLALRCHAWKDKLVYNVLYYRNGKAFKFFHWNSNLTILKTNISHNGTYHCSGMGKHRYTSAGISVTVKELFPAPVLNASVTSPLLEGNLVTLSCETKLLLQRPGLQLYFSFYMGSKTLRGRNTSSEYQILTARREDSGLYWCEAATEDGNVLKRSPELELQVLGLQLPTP
# [4] = target: T3, human FcγRIIa (131R), His- and …; experiment: SPR
# [5] = target: T4, human FcγRIIb receptor protein (R&D …); experiment: SPR
# [6] = target: T5, human FcγRIIa (131H), His- and …; experiment: SPR
# cynoFcγRIIb [7] = target: T6, cynoFcγRIIb; experiment: SPR, off-rate
# Protocol: (§1) Variants were screened for receptor affinity using Biacore™ technology, also referred to as Biacore herein, a surface plasmon resonance (SPR) based technology for studying biomolecular interactions in real time. SPR measurements were performed using a Biacore 3000 instrument (Biacore, Piscataway, N.J.). A protein A/G (Pierce Biotechnology) CM5 biosensor chip (Biacore) was generated using a standard primary amine coupling protocol. All measurements were performed using HBS-EP buffer (10 mM HEPES pH 7.4, 0.15 M NaCl, 3 mM EDTA, 0.005% vol/vol surfactant P20, Biacore). Antibodies at 20 nM or 50 nM in HBS-EP buffer were immobilized on the protein A/G surface and FcγRs were injected. After each cycle, the surface was regenerated by injecting glycine buffer (10 mM, pH 1.5). Data were processed by zeroing time and response before the injection of FcγR and by subtracting appropriate nonspecific signals (response of reference channel and injection of running buffer). Kinetic analyses were performed by global fitting of binding data with a 1:1 Langmuir binding model using BIAevaluation software (Biacore).
# (§2) Variant antibodies were tested for their affinity to mouse or cynologous monkey FcγRs using Biacore SPR as described above. Specifically, antibodies were first immobilized on a protein A/G chip to high density, and then followed by injections of the extracellular domain of the mouse or cynologous monkey FcγR of interest. Both association and dissociation phases were tracked in real time using the Biacore technology.
# mFcγRIIb [8] = target: T1, mFcγRIIb; experiment: SPR, off-rate
# Protocol: as §1, §2
# cynoFcγRIIb [9] = target: T6, cynoFcγRIIb; experiment: SPR
# 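Wherever Fold vs WT IgG1 (off-rate) is given: fold improvement over WT IgG1 so higher means slower dissociation than WT.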
Fold vs WT IgG1 (off-rate) (mFcγRIIb [1]) [fold],Fold vs WT IgG1 (off-rate) (mFcγRIV) [fold],Fold vs WT IgG1 (off-rate) (cynoFcγRIIIa) [fold],binding result [2],Fold vs WT IgG1 [3] [fold],Kd [3] [nM],Fold vs WT IgG1 [4] [fold],Kd [4] [nM],Fold vs WT IgG1 [5] [fold],Kd [5] [nM],binding result [6],binding result (cynoFcγRIIb [7]),Fold vs WT IgG1 [2] [fold],Kd [2] [nM],Fold vs WT IgG1 [6] [fold],Kd [6] [nM],binding result (mFcγRIIb [8]),Fold vs WT IgG1 (off-rate) (cynoFcγRIIb [9]) [fold],Binder
0.643,1.16,0.313,no binding,0.0279,11.8,0.609,1410,0.843,1740,no binding,no binding,,,,,,,"A327N (antibody, human IgG1, kappa, HuAM4G7 anti-CD19 IgG1 (m1) with this Fc substitution, EU index; copies: 2 + 2) heavy: not shown light: DIVMTQSPATLSLSPGERATLSCRSSKSLQNVNGNTYLYWFQQKPGQSPQLLIYRMSNLNSGVPDRFSGSGSGTEFTLTISSLEPEDFAVYYCMQHLEYPITFGAGTKLEIKRTVAAPSVFIFPPSDEQLKSGTASVVCLLNNFYPREAKVQWKVDNALQSGNSQESVTEQDSKDSTYSLSSTLTLSKADYEKHKVYACEVTHQGLSSPVTKSFNRGEC"
2.04,,0.433,,1.25,0.264,3.13,274,1.91,770,,no binding,0.547,350,1.17,553,,,"V266M (antibody, human IgG1, kappa, HuAM4G7 anti-CD19 IgG1 (m1) with this Fc substitution, EU index; copies: 2 + 2) heavy: not shown light: DIVMTQSPATLSLSPGERATLSCRSSKSLQNVNGNTYLYWFQQKPGQSPQLLIYRMSNLNSGVPDRFSGSGSGTEFTLTISSLEPEDFAVYYCMQHLEYPITFGAGTKLEIKRTVAAPSVFIFPPSDEQLKSGTASVVCLLNNFYPREAKVQWKVDNALQSGNSQESVTEQDSKDSTYSLSSTLTLSKADYEKHKVYACEVTHQGLSSPVTKSFNRGEC"
,,,,,0.626,,517,,1450,,no binding,,,,,no binding,,"anti-CD19 antibody HuAM4G7 IgG1 S267G (antibody, Positions in EU numbering; copies: 2 + 2) heavy: not shown light: DIVMTQSPATLSLSPGERATLSCRSSKSLQNVNGNTYLYWFQQKPGQSPQLLIYRMSNLNSGVPDRFSGSGSGTEFTLTISSLEPEDFAVYYCMQHLEYPITFGAGTKLEIKRTVAAPSVFIFPPSDEQLKSGTASVVCLLNNFYPREAKVQWKVDNALQSGNSQESVTEQDSKDSTYSLSSTLTLSKADYEKHKVYACEVTHQGLSSPVTKSFNRGEC"
,0.515,0.255,no binding,0.0176,18.7,32.5,26.4,28.4,51.7,,,,,0.402,1610,no binding,1.39,"L235F/S267E (antibody, human IgG1, kappa, HuAM4G7 anti-CD19 IgG1 (m1) with these Fc substitutions, EU index; copies: 2 + 2) heavy: not shown light: DIVMTQSPATLSLSPGERATLSCRSSKSLQNVNGNTYLYWFQQKPGQSPQLLIYRMSNLNSGVPDRFSGSGSGTEFTLTISSLEPEDFAVYYCMQHLEYPITFGAGTKLEIKRTVAAPSVFIFPPSDEQLKSGTASVVCLLNNFYPREAKVQWKVDNALQSGNSQESVTEQDSKDSTYSLSSTLTLSKADYEKHKVYACEVTHQGLSSPVTKSFNRGEC"
,0.144,0.561,no binding,0.0362,9.11,0.228,3760,0.409,3590,no binding,,,,,,no binding,0.936,"L234F (antibody, human IgG1, kappa, HuAM4G7 anti-CD19 IgG1 (m1) with this Fc substitution, EU index; copies: 2 + 2) heavy: not shown light: DIVMTQSPATLSLSPGERATLSCRSSKSLQNVNGNTYLYWFQQKPGQSPQLLIYRMSNLNSGVPDRFSGSGSGTEFTLTISSLEPEDFAVYYCMQHLEYPITFGAGTKLEIKRTVAAPSVFIFPPSDEQLKSGTASVVCLLNNFYPREAKVQWKVDNALQSGNSQESVTEQDSKDSTYSLSSTLTLSKADYEKHKVYACEVTHQGLSSPVTKSFNRGEC"
